Laboratory results: US20200353078A1 (AstraZeneca / MedImmune, published 2020)
One block for each binder: values may come before it.

Experiments:
Rat IL-33 (GenScript) = biological target: T1, Rat IL-33 (GenScript) (rat, UniProt Q66H70 109-264, limits assumed); assay: HTRF: unlabelled test protein competes with biotinylated human IL33-01 for DyLight650 labelled 33_640237-2B IgG
T1 sequence (looked up): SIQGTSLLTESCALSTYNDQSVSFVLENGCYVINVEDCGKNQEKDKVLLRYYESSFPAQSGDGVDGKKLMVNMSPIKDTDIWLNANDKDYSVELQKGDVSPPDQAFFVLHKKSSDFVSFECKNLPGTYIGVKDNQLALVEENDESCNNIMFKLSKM
Outline: (§1)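 HTRF competition: dilutions of unlabelled test protein competed with biotinylated human IL-33-01 (0.12 nM solution, with 0.75 nM streptavidin cryptate) for DyLight650-labelled 33_640087-7B or 33_640237-2B, in DPBS with 0.8 M KF and 0.1% BSA. Incubation was 4 h at RT, then 18 h at 4 °C. The 665/620 nm ratio gave % specific binding; IC50 by four-parameter fit.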

[1] = biological target: Human IL-1 beta (R&D Systems) (human, UniProt P01584 117-269); assay: as above
Outline: as §1

[2] = biological target: T2, Human IL-1 alpha (R&D Systems) (human, UniProt P01583 113-271); assay: as above
T2 sequence (looked up): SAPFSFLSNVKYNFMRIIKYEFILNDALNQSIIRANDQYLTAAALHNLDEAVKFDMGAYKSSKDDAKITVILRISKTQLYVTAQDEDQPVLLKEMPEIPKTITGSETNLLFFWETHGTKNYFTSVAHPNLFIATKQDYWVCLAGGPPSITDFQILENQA
Outline: as §1

His10/Avi Human IL33-01 = biological target: T3, His10/Avi Human IL33-01 (human); assay: cell-based or functional assay
T3 chain: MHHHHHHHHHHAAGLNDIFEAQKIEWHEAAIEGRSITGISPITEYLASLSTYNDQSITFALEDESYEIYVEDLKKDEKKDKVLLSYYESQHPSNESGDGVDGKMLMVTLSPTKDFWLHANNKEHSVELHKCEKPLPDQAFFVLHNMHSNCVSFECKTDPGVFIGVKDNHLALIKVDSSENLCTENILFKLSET

Mouse IL-33 Flag®His [3] = biological target: T4, Mouse IL-33 Flag®His (mouse); assay: HTRF, test protein competing with biotinylated IL33-01 for DyLight650 labelled IgG
T4 construct: C-terminal FLAG 10xHis tag, E. coli; also called Mature Mouse IL-33_FH; mouse IL-33 FH
T4 chain: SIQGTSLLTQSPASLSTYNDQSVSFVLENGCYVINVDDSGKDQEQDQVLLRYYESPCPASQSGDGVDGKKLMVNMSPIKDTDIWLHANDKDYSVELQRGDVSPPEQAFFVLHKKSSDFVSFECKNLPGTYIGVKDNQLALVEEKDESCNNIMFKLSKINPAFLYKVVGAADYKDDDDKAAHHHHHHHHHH
Protocol: (§2) Human, cyno and mouse IL-33 FLAG® His (described in Example 1 and Table 21), Human IL-1 alpha and IL-1 beta (R&D Systems) (Table 21) or rat IL-33 (GenScript) were tested for inhibition of human IL-33 binding to DyLight650 labelled 33_640087-7B or DyLight650 labelled 33_640237-2B by adding 5 microlitres of each dilution of sample to a 384 well low volume assay plate (Costar, 3673). […] This was followed by the addition of 2.5 microlitres of a solution containing 0.12 nM biotinylated human IL-33-01 combined with 0.75 nM streptavidin cryptate detection (Cisbio International, 610SAKLB). All dilutions were performed in assay buffer containing 0.8 M potassium fluoride (VWR, 26820.236) and 0.1% bovine serum albumin (BSA, PAA, K05-013) in Dulbeccos PBS (Invitrogen, 14190185). Assay plates were incubated for 4 hours at room temperature followed by 18 hours at 4 degrees Celsius and time resolved fluorescence was read at 620 nm and 665 nm emission wavelengths using an EnVision plate reader (Perkin Elmer). Data were analysed by calculating the 665/620 nm ratio followed by the % Delta F values for each sample. The 665/620 nm ratio was used to correct for sample interference using Equation 1. The % Delta F for each sample was then calculated using Equation 2. The negative control (non-specific binding) was defined by replacing biotinylated human IL-33 combined with streptavidin cryptate detection with streptavidin cryptate detection only. The % Delta F values were subsequently used to calculate % specific binding as described in Equation 3. IC₅₀ values were determined using GraphPad Prism software by curve fitting using a four-parameter logistic equation (Equation 4).

[4] = biological target: T5, Cynomolgus IL-33 Flag®His (cynomolgus monkey); assay: as above
T5 construct: C-terminal FLAG 10xHis tag, E. coli; also called Mature Cynomolugus IL-33; cyno IL-33 FH
T5 chain: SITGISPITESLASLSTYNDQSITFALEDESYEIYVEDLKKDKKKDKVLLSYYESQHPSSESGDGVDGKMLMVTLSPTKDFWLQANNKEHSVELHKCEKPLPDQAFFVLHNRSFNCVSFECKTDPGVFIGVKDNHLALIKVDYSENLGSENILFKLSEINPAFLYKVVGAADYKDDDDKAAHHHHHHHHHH
Protocol: as §2

Human IL-33 Flag®His [5] = biological target: T6, Human IL-33 Flag®His (human); assay: as above
T6 construct: Mature IL-33 with C-terminal FLAG 10xHis tag, from E. coli; biotinylated via free cysteines where used biotinylated; also called Mature Human IL-33_FH; human IL-33 FH
T6 chain: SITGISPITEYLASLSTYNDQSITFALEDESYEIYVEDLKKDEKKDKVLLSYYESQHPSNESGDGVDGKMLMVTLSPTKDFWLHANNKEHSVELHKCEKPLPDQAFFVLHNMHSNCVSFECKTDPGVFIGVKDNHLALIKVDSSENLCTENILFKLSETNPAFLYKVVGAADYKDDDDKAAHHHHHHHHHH
Protocol: as §2

Mouse IL-33 Flag®His [6] = biological target: T4, Mouse IL-33 Flag®His; assay: phage ELISA
[7] = biological target: T5, Cynomolgus IL-33 Flag®His; assay: phage ELISA
Human IL-33 Flag®His [8] = biological target: T6, Human IL-33 Flag®His; assay: phage ELISA
[9] = biological target: T7, Human ST2-Fc (R&D Systems, or source not stated in the example) (human, UniProt Q01638 19-328); assay: Biacore T100, ST2-Fc captured on Protein G', peptide as analyte
T7 construct: extracellular domain; also called sST2.Fc; sST2
T7 sequence (looked up): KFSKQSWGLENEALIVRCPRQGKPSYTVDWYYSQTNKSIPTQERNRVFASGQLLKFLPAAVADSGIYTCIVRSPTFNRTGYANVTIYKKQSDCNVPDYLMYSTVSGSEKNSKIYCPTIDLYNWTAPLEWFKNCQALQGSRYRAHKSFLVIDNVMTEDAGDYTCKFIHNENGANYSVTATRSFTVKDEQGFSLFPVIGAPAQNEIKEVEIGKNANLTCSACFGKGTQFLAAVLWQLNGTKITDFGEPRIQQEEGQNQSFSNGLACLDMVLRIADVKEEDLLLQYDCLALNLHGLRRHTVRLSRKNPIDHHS
From the text: The identified peptide together with a truncate ([…]) and scrambled variants of both, were then chemically synthesised and used in confirmatory T100 Biacore (GE Healthcare) binding studies. Protein G′ (Sigma Aldrich, P4689) was covalently coupled to the surface of a CM5 sensor chip (GE Healthcare) using standard amine coupling reagents according to manufacturer's instructions. The protein G′ surface was used to capture H338L293 or ST2-Fc via the Fc domain to provide a surface density of approximately 290 RU per cycle. IL33 peptides prepared in HBS-EP+ buffer, at a range of concentrations were passed over the sensor chip surface. The surface was regenerated using two 10 mM Glycine washes of pH 1.7 and pH 1.5 between each injection of antibody. The resulting sensorgrams were evaluated using Biacore T100 evaluation software 2.0.3 (GE Healthcare) and fitted to a 1:1 Langmuir binding model, to provide relative binding data.

binding result (Rat IL-33 (GenScript)): no binding (tested: about 10^-5.5 M)
binding result [1]: no binding (tested: about 10^-5.8 M)
binding result [2]: no binding (tested: about 10^-5.8 M)
IC50 (nM) vs. His Avi IL-33, Huvec IL-8 assay (His10/Avi Human IL33-01): 0.067 nM
binding result (Mouse IL-33 Flag®His [3]): no binding
binding result [4]: binds
binding result (Human IL-33 Flag®His [5]): binds
B1: 33_640237-2B IgG1 (antibody, V domains shown)
VH: EVQLLESGGGLVQPGGSLRLSCAASGFTFSSYAMSWVRQAPGKGLEWVSGIADDFTSTYYADPVKGRFTISRDNSKNTLYLQMNSLRAEDTAVYYCARDLWMMNYAGGLRYPFGYWGQGTMVTVSS
VL: SYVLTQPPSVSVSPGQTASITCSGERMGDKYAAWYQQKPGQSPVLVIYRDTKRPSGIPERFSGSNSGNTATLTISGTQAMDEADYYCGVLKQDTGVFGGGTKLTVL
notes: IgG1

binding result (Mouse IL-33 Flag®His [6]): no binding
binding result [7]: no binding
binding result (Human IL-33 Flag®His [8]): binds
B2: IL330180 scFv (scFv, V domains shown)
VH: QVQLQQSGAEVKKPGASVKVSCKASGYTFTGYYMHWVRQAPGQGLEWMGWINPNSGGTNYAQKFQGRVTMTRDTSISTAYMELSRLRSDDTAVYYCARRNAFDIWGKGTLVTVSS
VL: QPVLTQPPSVSEAPRQRVTISCSGSSSNIGNNAVNWYQQLPGTAPKLLIYRNNQRPSGVPDRFSGSKSGTSASLAISGLRSEDEADYYCAAWDDSLSGWVFGGGTKVNVL

binding result [9]: no binding
B3: IL-33 tryptic epitope peptide (full length synthetic epitope peptide) (peptide)
peptide: MLMVTLSPTKDFWLHANNKEHSVELHK
notes: Chemically synthesised; also called predicted tryptic IL-33 fragment
